Assay results as given in PMC6389977, “Dengue virus nonstructural 3 protein interacts directly with human glyceraldehyde-3-phosphate dehydrogenase (GAPDH) and reduces its glycolytic activity” (Scientific Reports, 2019).

B1: purified recombinant human GAPDH protein (enzyme)
chain: not shown
notes: also called glyceraldehyde-3-phosphate dehydrogenase

Key:
[1] = molecular target: B1; experiment: SPR; unpublished data; no conditions told; the estimate is given together with the ELISA result of ref. 39
[2] = molecular target: T1, recombinant full-length DENV2 NS3 protein (dengue virus 2, New Guinea C (NGC) …, UniProt P14340 1476-2093); experiment: SPR; details: both partners purified
T1 construct: also called full-length NS3
T1 sequence (P14340 1476-2093): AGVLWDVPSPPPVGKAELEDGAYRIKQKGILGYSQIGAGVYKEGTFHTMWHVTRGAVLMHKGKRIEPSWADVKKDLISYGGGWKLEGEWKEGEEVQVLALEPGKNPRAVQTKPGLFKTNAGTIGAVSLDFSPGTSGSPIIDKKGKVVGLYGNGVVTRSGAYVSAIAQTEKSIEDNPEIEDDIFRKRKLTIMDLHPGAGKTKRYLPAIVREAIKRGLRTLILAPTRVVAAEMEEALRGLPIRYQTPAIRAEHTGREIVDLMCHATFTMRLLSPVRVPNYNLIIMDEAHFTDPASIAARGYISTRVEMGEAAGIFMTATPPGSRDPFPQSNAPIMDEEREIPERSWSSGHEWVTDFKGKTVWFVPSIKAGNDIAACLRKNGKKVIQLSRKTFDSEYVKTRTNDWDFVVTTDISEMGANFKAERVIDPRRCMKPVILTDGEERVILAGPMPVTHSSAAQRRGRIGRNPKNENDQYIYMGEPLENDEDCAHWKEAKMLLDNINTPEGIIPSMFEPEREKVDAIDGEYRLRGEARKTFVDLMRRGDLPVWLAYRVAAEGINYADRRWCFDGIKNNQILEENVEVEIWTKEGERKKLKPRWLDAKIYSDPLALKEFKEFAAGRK

Row | Binder | Kd [1] [nM] | Kd [2] [nM]
1 | DENV2 NS1 protein (natural protein) DSGCVVSWKNKELKCGSGIFITDNVHTWTEQYKFQPESPSKLASAIQKAHEEGICGIRSVTRLENLMWKQITPELNHILSENEVKLTIMTGDIKGIMQAGKRSLQPQPTELKYSWKTWGKAKMLSTESHNQTFLIDGPETAECPNTNRAWNSLEVEDYGFGVFTTNIWLKLREKQDVFCDSKLMSAAIKDNRAVHADMGYWIESALNDTWKIEKASFIEVKSCHWPKSHTLWSNGVLESEMIIPKNFAGPVSQHNYRPGYHTQTAGPWHLGKLEMDFDFCEGTTVVVTEDCGNRGPSLRTTTASGKLITEWCCRSCTLPPLRYRGEDGCWYGMEIRPLKEKEENLVNSLVTA | 2000 to 3000 | –
2 | B1 | – | 310
